Target: T1, His-PIPKIγ661 C-terminus, wild-type (439-661)
T1 chain: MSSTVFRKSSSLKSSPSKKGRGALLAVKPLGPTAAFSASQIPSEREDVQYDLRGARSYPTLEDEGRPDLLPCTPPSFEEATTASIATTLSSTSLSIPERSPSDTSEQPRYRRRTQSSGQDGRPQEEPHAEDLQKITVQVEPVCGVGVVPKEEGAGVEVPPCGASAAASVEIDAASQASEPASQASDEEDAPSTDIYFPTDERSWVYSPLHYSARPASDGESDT

B1: focal adhesion-associated kinase (FAK) (protein)
chain: MAAAYLDPNLNHTPSSSTKTHLGTGMERSPGAMERVLKVFHHFESSSEPTTWASIIRHGDATDVRGIIQKIVDSHKVKHVACYGFRLSHLRSEEVHWLHVDMGVSSVREKYELAHPPEEWKYELRIRYLPKGFLNQFTEDKPTLNFFYQQVKSDYMQEIADQVDQEIALKLGCLEIRRSYWEMRGNALEKKSNYEVLEKDVGLKRFFPKSLLDSVKAKTLRKLIQQTFRQFANLNREESILKFFEILSPVYRFDKECFKCALGSSWIISVELAIGPEEGISYLTDKGCNPTHLADFNQVQTIQYSNSEDKDRKGMLQLKIAGAPEPLTVTAPSLTIAENMADLIDGYCRLVNGATQSFIIRPQKEGERALPSIPKLANSEKQGMRTHAVSVSHCQHKVKKARRFLPLVFCSLEPPPTDEISGDETDDYAEIIDEEDTYTMPSKSYGIDEARDYEIQRERIELGRCIGEGQFGDVHQGVYLSPENPALAVAIKTCKNCTSDSVREKFLQEALTMRQFDHPHIVKLIGVITENPVWIIMELCTLGELRSFLQVRKYSLDLASLILYAYQLSTALAYLESKRFVHRDIAARNVLVSSNDCVKLGDFGLSRYMEDSTYYKASKGKLPIKWMAPESINFRRFTSASDVWMFGVCMWEILMHGVKPFQGVKNNDVIGRIENGERLPMPPNCPPTLYSLMTKCWAYDPSRRPRFTELKAQLSTILEEEKVQQEERMRMESRRQATVSWDSGGSDEAPPKPSRPGYPSPRSSEGFYPSPQHMVQTNHYQVSGYPGSHGIPAMAGSIYQGQASLLDQTELWNHRPQEMSMWQPSVEDSAALDLRGMGQVLPPHLMEERLIRQQQEMEEDQRWLEKEERFLKPDVRLSRGSIDREDGSFQGPTGNQHIYQPVGKPDPAAPPKKPPRPGAPGHLSNLSSISSPADSYNEGVKLQPQEISPPPTANLDRSNDKVYENVTGLVKAVIEMSSKIQPAPPEEYVPMVKEVGLALRTLLATVDETIPALPASTHREIEMAQKLLNSDLGELISKMKLAQQYVMTSLQQEYKKQMLTAAHALAVDAKNLLDVIDQARLKMLGQTRPH
- in vitro kinase assay, phosphorylation of the recombinant substrate: while FAK does not

Source: US20040265295
